Results reported in the supplement of paper PMC12764529.
± gives the half width of the 95% confidence interval.

Assays:
[1] = folding stability dG unfold (combined trypsin and chymotrypsin); higher = more stable
Procedure, shortened: (§1)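 Bayesian fitting of sequencing counts gave K50 for each design. Unfolding free energy followed by setting this against a sequence-predicted unfolded-state K50 and a shared folded-state K50, either per protease or with trypsin and chymotrypsin combined. The designs, under 80 residues and lacking cysteine, were digested in a PA-tagged cDNA display format at 11 threefold-diluted protease concentrations and without protease, and only those with AlphaFold2 dimer inter-PAE above 15 were kept.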

[2] = folding stability dG unfold from chymotrypsin proteolysis; higher = more stable
Procedure, shortened: as §1

[3] = folding stability dG unfold from trypsin proteolysis; higher = more stable
Procedure, shortened: as §1

Sequence	folding stability dG unfold [1] [kcal/mol]	folding stability dG unfold [2] [kcal/mol]	folding stability dG unfold [3] [kcal/mol]
SAGGSAGGKTYIVKIVVKNKNGEELELTLEVETEEEAKEAAEELAKKLEEAGYEIVKVEIKKLPSAGGSAGG [r6_869_TrROS_Hall]	4.02 ± 0.2	4.11 ± 0.14	3.64 ± 0.27
SAGGTLTLLVEVDGLLVRVTAEVRLVYDPETDELTLEVRVRVEVRPLPAPPPPLVVVRDADGRLRLLSAGGS [r8_46_TrROS_Hall]	2.22 ± 0.08	2.71 ± 0.042	1.03 ± 0.095
SAGGSMNPYSETITVNLPVPTPSGGSVVRPVTVPISIVYEDEKELEEALKKAKEEAEAAARKALGLESAGGS [r16_339_JUSTAS]	1.05 ± 0.11	0.685 ± 0.069	1.37 ± 0.067
SAGGSMIEEAIEEALKKGLEKVEIEVEVEVNGKIYRVKMEIVKVEEGKVEIKIEVEEIDPETGKLISAGGSA [r2_420_TrROS_Hall]	3.53 ± 0.19	3.92 ± 0.15	2.54 ± 0.13
SAGDDLKIKKVEIQINPEHGYISVTFRIDGYEVQIMYDVDPKNGPITMDIYYPGKPIGEFTIPLNDIKISAG [r5_415_TrROS]	2.68 ± 0.1	3.01 ± 0.05	1.78 ± 0.083
SAGGSAGGSAGMTLRLKIRVYDPETREEVEEKEIEVELPPGASLEELLAALPPEQVEVEFSAGGSAGGSAGG [r17_339_TrROS_Hall]	0.848 ± 0.15	1.1 ± 0.2	0.534 ± 0.12
SAGGSAGGSKITSIQPHDGFWRIEIKPDGKPQERWINMDELPPNIKIPPGYKVKIEPFSPGDMSAGGSAGGS [r12_1005_TrROS]	-0.26 ± 0.26	-0.769 ± 0.92	-0.0148 ± 0.14
SAMVEVRIEYDEETGEIRIEVRAEEEGEELTEEEIEELARELAEELGLPVEIKEIRVEKAPEVEEVVLESAG [r14_556_TrROS_Hall]	0.884 ± 0.3	0.757 ± 0.1	1.05 ± 0.18
SAGGFLENLPDEVVEAALAAVLPDGSRVFVALRKGPDRPRVLIITFDANGVPRDIRELDPEEALKALEASAG [r5_73_TrMRF]	2.68 ± 0.034	2.75 ± 0.028	2.48 ± 0.042
SAGGSAGGSAGGMIVIEVERKEGEEERKEVIVIPNDPEKAEAEAKKLAEEGPVEKVTIKKESAGGSAGGSAG [r3_310_JUSTAS]	1.04 ± 0.28	1.3 ± 0.066	0.243 ± 0.11
SKKYFLKIEIEIEVELRPLPDEPGYVVLRARIKIKITLVKVDPETGEIVEEKEFEIEIEIELVFPPGVKPSA [r9_1234_TrROS_Hall]	> 6	6.38 ± 0.71	4.35 ± 0.58
SAGGSAGGSAGDGINFTLDIPIEGDFELRDVYLTPLEPENRRAFFLLRYKDGPVLLTLPLSAGGSAGGSAGG [r11_1013_TrMRF]	1.09 ± 0.1	0.922 ± 0.18	1.21 ± 0.12
SAGGKKTFKVTLTLELKVERDEETGELKTETLTLTLTIEAESEEEAEKALKELLEKLELSPELKKALSAGGS [r16_40_TrROS_Hall]	3.4 ± 0.097	3.76 ± 0.064	2.17 ± 0.082
SAGGSAGGSAGGSVTYEADEVEIKEFTDPSTGKKYVTVTFPGPGGPVTTTLPADLIEELSAGGSAGGSAGGS [r10_447_JUSTAS]	1.33 ± 0.093	1.48 ± 0.03	0.96 ± 0.043
SAGGSAGGGIDLSNPEDIEEALKKSGIVGVFKVKIIPLPGGKWKKIIEPVKLLPKEELEKAGLISAGGSAGG [r6_402_TrMRF]	0.637 ± 0.095	0.444 ± 0.12	0.825 ± 0.043
SAGGSAGGSAGGDSNVDNFTLMFPWGWVVKIDITYTDGGLETDWEIIEPVPPLPPDDKNKSAGGSAGGSAGG [r7_845_TrROS]	2.77 ± 0.12	3.54 ± 0.037	1.6 ± 0.081
SMIKVGFNVTGLPEEAEAKAEELARELAEETGARVAGVELLEAVPHPDGGPETFNVLVTLEVPNPEAIEKSA [r9_302_TrMRF]	1.72 ± 0.093	2.21 ± 0.051	0.542 ± 0.045
SAGGSAGGSKKKKKVKYKIKVINPEKPEVKEIEIEAENEEEAKKLAEELAKKYPGVKVEIEKTSAGGSAGGS [r12_601_TrROS_Hall]	2.48 ± 0.095	2.95 ± 0.064	1.08 ± 0.07
SAGGSAGGKIKVEIEYNGEKKEMTLDEIKALLKKNLPPNATIRVKKNGKTIPLKKVKVKKLKKKSAGGSAGG [r6_936_TrROS_Hall]	1.35 ± 0.18	1.65 ± 0.15	1.08 ± 0.069
SAGGSGMTETIKLSDPKNGLSVTVTVTFDPATGSKSVTITVESSEEAKEKVKALLEEKGLPVTVTSSAGGSA [r2_30_JUSTAS]	1.27 ± 0.081	1.55 ± 0.082	0.716 ± 0.063
SAGGSPEVKIEIEVTERVTVFDENGKPVEEVLVVKAKITFPDGTTATITAFFYEGKWFITSIELEPSAGGSA [r2_158_TrROS_Hall]	4.62 ± 0.27	4.83 ± 0.24	3.84 ± 0.25
